What all share (type): in vitro ADME
Data set [1] in a line: Metabolic stability in hepatocytes, SD rats. The settings on record: Sprague-Dawley (SD), rat, hepatocytes (cryopreserved, suspension), 0.5×10^6 cells/mL. Here is the method:
Test Example 7: Metabolic Stability of the Compounds of the Present Invention in Hepatocytes from Mice, Rats, Cynomolgus Macaques, and Humans
To investigate the metabolic stability of the compounds of the present invention in hepatocytes from mice, rats, Cynomolgus macaques, and humans.
Incubations were performed in 96-well plates using an external extraction method. Several 96-well sample precipitation plates, designated T0, T15, T30, T60, T90, TO-MC, T90-MC, and blank matrix, were prepared, respectively. The recovery culture medium and incubation culture medium were removed in advance and placed in a 37° C. water bath for preheating. […]
At the end of the incubation at the corresponding time point, the incubation plates were removed, from which 25 μL of a compound mixture with the cells and a control compound mixture with the cells were removed and added to sample plates containing 125 μL of stop buffer, respectively. […] All samples were mixed uniformly and then analyzed by the LC-MS/MS method.
The concentration of the compound to be tested and the concentration of the control in the sample were semi-quantitatively determined by the liquid chromatography-tandem mass spectrometry (LC-MS/MS) method without a standard curve and quality control sample. […]

Data set [2] in a line: Metabolic stability in kidney S9, SD rats. The following applies: Sprague-Dawley (SD), rat. Here is the method:
(§1) Test Example 8: Metabolic Stability of the Compounds of the Present Invention in Kidney S9 from Mice, Rats, Cynomolgus Macaques, and Humans
(§2) To investigate the metabolic stability of the compounds of the present invention in kidney S9 from mice, rats, Cynomolgus macaques, and humans.
(§3) Materials: Kidney S9 from CD-1 mice, SD rats, Cynomolgus macaques, and humans were purchased from BioIVT or XenoTech LLC and stored in a −80° C. refrigerator.
(§4) Experimental procedure: Eight 96-well plates, designated T0, T5, T15, T30, T45, T60, Blank, and NCF60, were prepared. The first six incubation plates corresponded to reaction time points of 0, 5, 15, 30, 45, and 60 minutes, respectively. No test sample or control compound was added to the Blank plate.
(§5) The T0, T5, T15, T30, T45, and T60 plates were added with a 2 μL working solution of the test sample (10 mM of a solution of the compound to be tested in DMSO, diluted to 100 μM with 100% acetonitrile) and 100 μL of a S9 working solution (kidney S9 protein concentration of 1.0 mg/mL), and the Blank plate was only added with the S9 working solution. The above incubation plates were then placed in a 37° C. water bath for pre-incubation for about 10 minutes.
(§6) At the end of the pre-incubation, 98 μL of an auxiliary enzyme working solution was added to each sample well except the TO plate to start the reaction. […]

Data set [3] is described as follows: Metabolic stability in kidney S9, humans. The following applies: human. Here is the method: as §1, §2, §3, §4, §5, §6

Broadly, the half-life is the time in which the quantity being followed falls by half. The microsomal CLint is a measure of how fast metabolising enzymes remove a compound, apart from limits set by blood flow. Read a high microsomal CLint as faster metabolism.

Where a name gives a salt, the structure may show the parent alone. Starred links: 1 amine or outer side, 2 acyl side, 3 side chain; linkers in the order of their positions; H or OH if unused. Positions of bridges follow the written chain, without caps; N, C: chain ends. Non-standard residues stand in square brackets, D forms with d. Residues, ends and D or L forms follow the SMILES beside them. Chains are numbered I, II in the order given. *: point of attachment. TATA = O=C(CC[*:1])N1CN(C(=O)CC[*:2])CN(C(=O)CC[*:3])C1; Dolaproine = CO[C@@H]([C@@H]1CCCN1)[C@@H](C)C(=O)O; Dil = CC[C@H](C)[C@H](NC)[C@@H](CC(=O)O)OC; 1Nal = N[C@@H](Cc1cccc2ccccc12)C(=O)O; X2 = O=C(CCCC(=O)[*:2])NCCC(=O)[*:1]; PABC = O=C(OCc1ccc(N[*:1])cc1)[*:2]; X1 = C[C@@H](N*)[C@@H](O)c1ccccc1; Hyp = O=C(O)[C@@H]1C[C@@H](O)CN1; hArg = N=C(N)NCCCC[C@H](N)C(=O)O; Cit = NC(=O)NCCC[C@H](N)C(=O)O; Pen = CC(C)(S)[C@H](N)C(=O)O; NMeV = CN[C@H](C(=O)O)C(C)C; Sar = CNCC(=O)O

Take `CC[C@H](C)[C@@H]([C@@H](CC(=O)N1CCC[C@H]1[C@H](OC)[C@@H](C)C(=O)N[C@H](C)[C@@H](O)c1ccccc1)OC)N(C)C(=O)[C@@H](NC(=O)[C@H](C(C)C)N(C)C(=O)OCc1ccc(NC(=O)[C@H](CCCNC(N)=O)NC(=O)[C@@H](NC(=O)CCCC(=O)NCCC(=O)N(C)CC(=O)N(C)CC(=O)N(C)CC(=O)N(C)CC(=O)N(C)CC(=O)N(C)CC(=O)N(C)CC(=O)N(C)CC(=O)N(C)CC(=O)N(C)CC(=O)N[C@H]2CCCCNC(=O)C[C@@H](C(=O)N[C@H]3CSCCC(=O)N4CN5CN(C4)C(=O)CCSC(C)(C)[C@H](NC(=O)[C@@H](CC(=O)O)NC(=O)[C@H](Cc4cccc6ccccc46)NC(=O)[C@@H]4CCCN4C3=O)C(=O)N[C@@H](CCSC)C(=O)N[C@@H](CCCCNC(=N)N)C(=O)N[C@@H](CC(=O)O)C(=O)N[C@@H](Cc3c[nH]c4ccccc34)C(=O)N[C@@H](CO)C(=O)N[C@@H]([C@@H](C)O)C(=O)N3CCC[C@H]3C(=O)N3C[C@H](O)C[C@H]3C(=O)N[C@@H](Cc3c[nH]c4ccccc34)C(=O)N[C@H](C(N)=O)CSCCC5=O)NC(=O)CN(C)C2=O)C(C)C)cc1)C(C)C` [Acetate salt of PDC_2] (I: [Sar][Sar][Sar][Sar][Sar][Sar][Sar][Sar][Sar][Sar]K[Sar]DCP[1Nal][dD][Pen]M[hArg]DWSTP[Hyp]WC-NH2 / II: V[Cit][PABC][NMeV]V[Dil][Dolaproine]-X1; lactam I:11-I:13; linker I:14-I:18-I:28 via TATA; linker I:N-II:N via X2): the values for the half-life at 1 μM in data set [1], in data set [2] and in data set [3] were over 3.61 h, over 2.42 h and over 2.42 h, respectively. For the same compound, the CLint scaled at 1 μM in data set [1] (read-out: CLint (liver)) was under 29.9 mL/min/kg. Besides, the microsomal CLint at 1 μM in data set [2] and in data set [3] was under 9.6 µL/min/mg throughout.
